In paper PMC4192486, “The Importance of a Gatekeeper Residue on the Aggregation of Transthyretin” (The Journal of Biological Chemistry, 2014):

Molecular target: the molecule itself
Test: SEC; Superdex 75 on HPLC, absorbance at 280 nm; 100 μM peptide in buffer pH 5.0 (100 mM MES, 100 mM KCl) at 25 °C, aliquots at 0, 5, 10, 15 and 30 min of the aggregation reaction; soluble WT peptide at the same concentration as control

B1: TTR 26–57 peptide bearing the K35L substitution (peptide)
peptide: not shown
notes: transthyretin (TTR), human, residues 26-57 with K35L; also called K35L peptide; 26–57 K35L; source: synthetic peptide; bought: Genemed Synthesis
B1 was tested, and the “stoichiometry N” value was 10 to 15 units.
